From US20180044422A1 (NEW YORK UNIVERSITY, published 2018)

Legend:
Galectin-4 (Biolegend) = molecular target: T1, Galectin-4 (Biolegend) (Mus musculus (Mouse), UniProt Q8K419 1-326); assay: ELISA, plate coated with Galectin-4, Dectin-1 IgG Fc at 2.5 µg/ml (concentration from paragraph 191, not on the sheet), detection with anti-IgG-HRP [cont.) I]
T1 construct: The sentence reads 'recombinant mouse Galectin-9 ..., Galectin-3, or Galectin-4'; whether 'mouse' also applies to Galectin-4 is not clear
T1 sequence: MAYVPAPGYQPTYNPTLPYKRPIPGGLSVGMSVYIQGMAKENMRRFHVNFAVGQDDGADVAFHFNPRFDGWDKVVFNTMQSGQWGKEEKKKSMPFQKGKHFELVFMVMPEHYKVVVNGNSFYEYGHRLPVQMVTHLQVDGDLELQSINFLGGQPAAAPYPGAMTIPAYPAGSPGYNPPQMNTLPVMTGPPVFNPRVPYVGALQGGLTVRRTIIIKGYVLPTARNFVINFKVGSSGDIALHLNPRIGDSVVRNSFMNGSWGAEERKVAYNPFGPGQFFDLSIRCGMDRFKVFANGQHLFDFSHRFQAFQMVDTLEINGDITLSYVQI
Description: (§1) To investigate if Galectin-9 can bind with Dectin-1, Protein G-magnet beads (2 ml; Dynabeads) were loaded with Dectin-1 IgG Fc (1 mg) or control IgG Fc before washing and blocking. Subsequently, beads were incubated with recombinant Galectin-9 ([…]; R&D Systems) for 30 min, washed, and stained with PE-conjugated anti-Galectin-9 (Biolegend, San Diego Calif.). Galectin-9 specific staining was determined by flow cytometry. To investigate the interaction between Galectin-9 and Dectin-1 by ELISA, plates (Maxisorp, Nunc, St. Louis, Mo.) were coated with recombinant mouse Galectin-9 ([…]; R&D Systems, Minneapolis, Minn.), Galectin-3, or Galectin-4 (both […]; Biolegend) for 16 hours at 4° C., blocked with 1% BSA/PBS for 1 hour, and incubated with increasing doses of Dectin-1 IgG Fc or control IgG Fc for 2 hours. The Galectin-bound Dectin-1 IgG Fc was detected with anti-IgG-HRP. […] Bead-bound precipitates were resuspended with loading buffer, resolved by SDS-PAGE under reduced conditions for western blotting using mAbs specific for Galectin-9. […] Dectin-1 signaling was measured by detection of secreted embryonic alkaline phosphatase. […] Syk phosphorylation was measured by flow cytometry at 3 hours.

Galectin-3 (Biolegend) = molecular target: T2, Galectin-3 (Biolegend) (Mus musculus (Mouse), UniProt P16110 2-264); assay: ELISA, plate coated with Galectin-3, Dectin-1 IgG Fc at 2.5 µg/ml (concentration from paragraph 191, not on the sheet), detection with anti-IgG-HRP [cont.) I]
T2 construct: The sentence reads 'recombinant mouse Galectin-9 ..., Galectin-3, or Galectin-4'; whether 'mouse' also applies to Galectin-3 is not clear
Description: as §1

T2 sequence (P16110 2-264 limits assumed): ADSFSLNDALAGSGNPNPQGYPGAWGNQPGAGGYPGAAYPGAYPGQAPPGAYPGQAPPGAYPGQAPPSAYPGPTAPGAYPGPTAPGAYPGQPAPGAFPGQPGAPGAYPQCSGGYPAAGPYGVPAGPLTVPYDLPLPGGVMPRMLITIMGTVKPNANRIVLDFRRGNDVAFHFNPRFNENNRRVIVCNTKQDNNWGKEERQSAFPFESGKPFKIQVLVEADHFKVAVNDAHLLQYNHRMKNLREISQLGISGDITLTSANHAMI

binding result (Galectin-4 (Biolegend)): no binding (tested: 2.5 µg/ml)
binding result (Galectin-3 (Biolegend)): no binding (tested: 2.5 µg/ml)
B1: human IgG Fc-conjugated Dectin-1 fusion protein (murine Dectin-1 IgG Fc; fc-mdec1a, InvivoGen) (Fc fusion, mouse, UniProt Q6QLQ4 69-244, looked up)
chain: EYGHNSGRNPEEKDNFLSRNKENHKPTESSLDEKVAPSKASQTTGGFSQPCLPNWIMHGKSCYLFSFSGNSWYGSKRHCSQLGAHLLKIDNSKEFEFIESQTSSHRINAFWIGLSRNQSEGPWFWEDGSAFFPNSFQVRNTAPQESLLHNCVWIHGSEVYNQICNTSSYSICEKEL
notes: Bought reagent (fc-mdec1a; InvivoGen); also called Dectin-1 Fc; not shown: human IgG Fc
